Laboratory results taken from publication PMC3274541, “The Inherited Blindness Protein AIPL1 Regulates the Ubiquitin-Like FAT10 Pathway” (PLoS ONE, 2012).

T1: Myc-AIPL1 (aryl hydrocarbon receptor interacting protein-like 1), wild type (UniProt Q9NZN9 1-384)
T1 construct: also called pCMV-Tag3C-AIPL1; WT AIPL1; source: SK-N-SH, transfected, in lysate
T1 sequence (looked up): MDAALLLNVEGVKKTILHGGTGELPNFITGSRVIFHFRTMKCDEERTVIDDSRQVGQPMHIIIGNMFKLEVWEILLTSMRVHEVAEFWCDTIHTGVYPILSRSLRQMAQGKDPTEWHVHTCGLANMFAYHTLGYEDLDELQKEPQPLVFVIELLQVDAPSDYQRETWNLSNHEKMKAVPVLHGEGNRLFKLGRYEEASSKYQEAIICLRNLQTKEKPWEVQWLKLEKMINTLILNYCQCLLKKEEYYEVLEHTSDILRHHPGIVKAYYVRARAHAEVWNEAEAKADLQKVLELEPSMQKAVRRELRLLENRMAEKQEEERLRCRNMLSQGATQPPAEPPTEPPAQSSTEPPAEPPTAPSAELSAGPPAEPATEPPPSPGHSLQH

B1: HA-FAT10 (natural protein, UniProt O15205 1-165, looked up)
chain: MAPNASCLCVHVRSEEWDLMTFDANPYDSVKKIKEHVRSKTKVPVQDQVLLLGSKILKPRRSLSSYGIDKEKTIHLTLKVVKPSDEELPLFLVESGDEAKRHLLQVRRSSSVAQVKAMIETKTGIIPETQIVTCNGKRLEDGKMMADYGIRKGNLLFLACYCIGG
notes: ubiquitin-like modifier FAT10; also called free FAT10; monomeric FAT10; source: SK-N-SH, transfected, in lysate
B2: NUB1-FLAG (NEDD8 ultimate buster-1) (natural protein)
chain: not shown
notes: NEDD8 ultimate buster-1 (NUB1), the shorter splice variant that lacks 14 amino acids in the second UBA domain of NUB1L; also called NUB1-p3XFLAG-CMV; source: SK-N-SH, transfected, in lysate

What was measured:
Test in all cases: co-IP; SK-N-SH cells co-transfected; lysed in DM buffer (1% n-dodecyl-β-D-maltoside, 10 mM EDTA, protease inhibitors in PBS); 2 µl antibody 2 h at 4°C, Protein G Sepharose overnight at 4°C, 5 washes; western blot; with or without 50 µM MG132 for 4 h
Conditions in all cases: partners not purified
[1] = target: T1, Myc-AIPL1 (aryl hydrocarbon receptor …)
[2] = target: B2
HA-FAT10 = target: B1

| Binder | fold increase of the co-precipitate with proteasome inhibitor over untreated cells [1] [fold] | fold increase of the co-precipitate with proteasome inhibitor over untreated cells [2] [fold] | fold increase of the co-precipitate with MG132 over untreated cells (HA-FAT10) [fold] |
| --- | --- | --- | --- |
| B1 | ~5 | ~2 | – |
| B2 | – | – | ~5 |
